Experimental data published in patent US20220193132A1 (NATIONAL RESEARCH COUNCIL OF CANADA, published 2022).
Residue numbers refer to the chain shown, from its start.

T1: EGFRvIII fragment amino acid residues 3 to 18, displayed on yeast (human)
T1 construct: also called aa 3-18
T1 peptide: EKKGNYVVTDHGSCVR

T2: EGFRvIII fragment amino acid residues 1 to 18, displayed on yeast (human)
T2 construct: also called aa 1-18
T2 peptide: LEEKKGNYVVTDHGSCVR

B1: F260-5G6 (antibody, V domains shown)
VH: EVQLQQSGAELARPGASVKMSCKASGYTFTSYWMHWVKQRPGQGLEWIGAIYPGNSDISYNQKFKGKAKLTAVTSATTAYMELSSLTNEDSAVYYCTLYDYDPDYWGQGTTLTVSS
VL: not shown
notes: Mouse hybridoma mAb
B2: hFc-5G6 (antibody, human IgG1, kappa, V domains shown)
VH: B1 VH
VL: not shown
notes: Chimeric antibody, mouse variable regions on human IgG1 / human kappa, produced in CHO cells; also called chimeric 5G6
B3: hFc-5G6-MMAE (antibody, human IgG1, kappa, V domains shown)
VH: B1 VH
VL: not shown
modifications: MC-vc-PAB-MMAE on reduced interchain cysteines
B4: F266-11C8 (antibody, V domains shown)
VH: QIQLVQSGPELKKPGETVKISCKASGYTFTTAGMQWVQKMPGKGFKWIGWINTHSGDPKYAEDFKGRFAFSLETYASTAYLQISNLKNEDTASYFCARTHIYDGYNYAMDYWGQGTSVTVSS
VL: DVVMTQTPLSLPVSLGDQASISCRSSQSLVYSNGNTYLHWYLQKPGQSPKLLIYKVSNRFSGVPDRFSGSGSGTDFTLKISRVEAEDLGVYFCSQSTHVPFTFGSGTKLEIK
notes: Mouse hybridoma mAb; also called 11H5 (11C8)
B5: F266-11B1 (antibody, V domains shown)
VH: B4 VH with Q38K
VL: B4 VL
notes: Mouse hybridoma mAb
B6: F266-11H3 (antibody, V domains shown)
VH: B4 VH with S93T
VL: B4 VL
notes: Mouse hybridoma mAb
B7: F263-1A8 (antibody, V domains shown)
VH: EVQLQQSGAELVRPGALVKLSCKASGFNIKDYYMHWVKQRPEQGLEWIGWIDPENGNTIYDPKFQGKATITADTSSNTAYLQLSSLASEDTAVYYCARGWLLLWGQGTTLTVSS
VL: not shown
notes: Mouse hybridoma mAb
B8: hFc-4E11-MMAE (antibody, human IgG1, kappa, V domains shown)
VH: DVQLQESGPGLVKPSQSLSLTCTVTGYSITSDYAWNWIRQFPGNKLEWMGYIGYNGRTSYNPSLKSRISITRDTSKNQFFLQLNYVTTEDTATFYCARLGRGFAYWGQGTLVTVSA
VL: DILMTQSPSSMSVSLGDTVSITCHASQGINSNIGWLLQKPGKSFKGLIYHGTNLEDGVPSRFSGSGSGTDYSLTISSLESEDFADYYCVQYAQFPYTFGGGTKLEIKR
modifications: MC-vc-PAB-MMAE on reduced interchain cysteines
B9: hFc-13.1.2-MMAE (antibody, human IgG1, kappa, V domains shown)
VH: QVQLVESGGGVVQPGRSLRLSCAASGFTFSSYGMHWVRQAPGKGLEWVAVIWYDGSNKYYVDSVKGRFTISRDNSKNTLYLQMNSLRAEDTAVYYCARDGWQQLAPFDYWGQGTLVTVSS
VL: not shown
modifications: MC-vc-PAB-MMAE on reduced interchain cysteines
B10: hFc-13.1.2 (antibody, human IgG1, kappa, V domains shown)
VH: B9 VH
VL: not shown

How the values were obtained:
[1] = target: T3, recombinant human wild type EGFR protein (extracellular domain), native (human, UniProt P00533 25-645); assay: ELISA Exp 2, purified mAb 1 ug/ml;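 also: ELISA of purified mAb binding to plate-coated antigen, native or heat/DTT-denatured, with pNPP substrate developed for 30 min and incubations at room temperature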
T3 construct: also called wt EGFR; EGFR WT
Protocol: (§1) Pre- and post-immune sera titers of animals were assessed by ELISA on recombinant EGFRvIII protein. Unless otherwise stated, all incubations were performed at room temperature. […] Microplates were washed three times in PBS and blocked for 30 min with PBS containing 1% bovine serum albumin (BSA, Sigma Cat #A7030). Blocking buffer was removed and 25 μl of serial dilutions of sera samples were added. […] After a 1-h incubation, microplates were washed 4 times and 25 μl of p-nitrophenyl phosphate (pNPP) substrate (Sigma-Aldrich Canada Co., Oakville, ON) at 1 mg/ml in carbonate buffer at pH 9.6 was added and further incubated for 30 min.
(§2) Antigens at 1-2 mg/ml were incubated at 95° C. for 5 min in PBS containing DTT at a final concentration of 40 mM. They were then incubated on ice for 5 min and diluted at their final coating concentration for ELISA purpose.
(§3) ELISA was performed as described above (serum titer determination) using 25 μl of mAb supernatant (Exp 1) or purified mAb at 1 μg/ml (Exp 2).

[2] = target: T4, recombinant human EGFRvIII protein (extracellular domain), denatured (human, UniProt P00533 298-623); assay: ELISA Exp 2, purified mAb 1 ug/ml;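 also: ELISA of purified mAb binding to plate-coated antigen, native or heat/DTT-denatured, with pNPP substrate developed for 30 min and incubations at room temperature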
T4 construct: Same protein as m21 after 95 C for 5 min in PBS with 40 mM DTT (denatured, reduced); also called EGFRvIII Denatured
Protocol: as §1, §2, §3

[3] = target: T5, recombinant human EGFRvIII protein (extracellular domain), native (human, UniProt P00533 298-623); assay: ELISA Exp 2, purified mAb 1 ug/ml;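 also: ELISA of purified mAb binding to plate-coated antigen, native or heat/DTT-denatured, with pNPP substrate developed for 30 min and incubations at room temperature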
T5 construct: also called hEGFRvIII
Protocol: as §1, §2, §3

[4] = target: T6, recombinant human wild type EGFR protein (extracellular domain), denatured (human, UniProt P00533 25-645); assay: ELISA Exp 2, purified mAb 1 ug/ml;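 also: ELISA of purified mAb binding to plate-coated antigen, native or heat/DTT-denatured, with pNPP substrate developed for 30 min and incubations at room temperature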
T6 construct: Same protein as m23 after 95 C for 5 min in PBS with 40 mM DTT (denatured, reduced); also called wt EGFR Denatured
Protocol: as §1, §2, §3

[5] = target: T7, EGFRvIII, full length, overexpressed on glioblastoma cells (human, UniProt P00533 298-623); assay: cell-based or functional assay
[6] = target: T8, wild type human EGFR, full length, overexpressed on U87MG cells (human, UniProt P00533 25-1210); assay: cell-based or functional assay
[7] = target: T7, EGFRvIII, full length, overexpressed on …; assay: flow cytometry dose-response on U87MG-EGFRvIII cells, apparent Kd
Protocol: (§4) Prior to analysis, cells were plated such that they were not more than 80% confluent on the day of analysis. Unless otherwise stated, all media are kept are 4° C. and all incubations are performed on wet ice. Cells were washed in PBS, harvested by the addition of cell dissociation buffer (Sigma), centrifuged and resuspended in complete medium at a cell density of 2×10⁶ cells/mL. Fifty μL/well of cells were distributed in a polypropylene v-bottom 96 well plate and serial 1/3 dilutions of purified mAbs starting at 100 nM were added and incubated for 2 hours. […] Cells were washed and re-suspended in medium containing Propidium iodide to exclude dead cells from analysis. Samples were filtered through a 60 μm nylon mesh filter plate (Millipore, Ireland) to remove cell aggregates. Flow cytometry analyses were performed on 2,000 viable single-cells events gated on forward scattering, side scattering parameters and propidium iodide dye exclusion using a BD-LSRFortessa flow cytometer (Becton-Dickinson Biosciences, CA, USA) and a standard filter set using BD FACSDiva™ acquisition software, according to manufacturer's instructions.
(§5) Specific detection of antibody binding was calculated as the mean fluorescent intensity of binding to each primary antibody after background level subtraction of the mean fluorescent intensity of binding of mouse IgG control. The data were analyzed with GraphPad Prism v 6.0 software using one-site specific binding with Hill slope non-linear regression curve fit model to determine Bmax (maximum specific binding) and Kdₐₚₚ (concentration needed to achieve a half-maximum binding at equilibrium) for each mAb tested.

[8] = target: T1, EGFRvIII fragment amino acid residues 3 …; assay: yeast surface display, flow cytometry
Description: (§6) Assessment of the binding of anti-EGFRvIII mAbs to the fusion proteins expressed on yeast cell surface was done by flow cytometry analysis. Briefly, yeast cells were labeled with both the anti-hEGFRvIII mAb and chicken anti-Myc antibody, the latter being used to monitor the level of expression of the fusion protein. Following a wash step, binding of the primary antibodies is probed by a two-color indirect fluorescence labeling using secondary antibodies specific for mouse and chicken antibodies, respectively.

[9] = target: T7, EGFRvIII, full length, overexpressed on …; assay: cell-based or functional assay; remark: listed apart in the source
[10] = target: T8, wild type human EGFR, full length, …; assay: cell-based or functional assay; remark: listed apart in the source
[11] = target: T8, wild type human EGFR, full length, …; assay: flow cytometry dose-response, U87MG-EGFRwt cells
Protocol: as §4, §5

[12] = target: T3, recombinant human wild type EGFR …; assay: ELISA Exp 1, mAb supernatant
Protocol: as §1, §2, §3

[13] = target: T4, recombinant human EGFRvIII protein …; assay: ELISA Exp 1, mAb supernatant
Protocol: as §1, §2, §3

[14] = target: T5, recombinant human EGFRvIII protein …; assay: ELISA Exp 1, mAb supernatant
Protocol: as §1, §2, §3

[15] = target: T6, recombinant human wild type EGFR …; assay: ELISA Exp 1, mAb supernatant
Protocol: as §1, §2, §3

[16] = target: T8, wild type human EGFR, full length, …; assay: flow cytometry dose-response, U87MG EGFR wt cells
Protocol: as §4, §5

[17] = target: T7, EGFRvIII, full length, overexpressed on …; assay: flow cytometry dose-response on DKMG EGFRvIII cells (n=1)
Protocol: as §4
(§7) These cells were grown in RPMI and 10% fetal bovine serum using standard culturing conditions.

[18] = target: T7, EGFRvIII, full length, overexpressed on …; assay: flow cytometry dose-response on U87MG EGFRvIII cells, apparent Kd (n=2)
Protocol: as §4, §7

[19] = target: T7, EGFRvIII, full length, overexpressed on …; assay: flow cytometry dose-response on DKMG EGFRvIII cells, apparent Kd (n=1)
Protocol: as §4, §7

[20] = target: T7, EGFRvIII, full length, overexpressed on …; assay: cell-based or functional assay; remark: listed apart in the source
[21] = target: T2, EGFRvIII fragment amino acid residues 1 …; assay: yeast surface display, flow cytometry
Description: as §6

Row | Binder | ELISA absorbance 405 nm [1] [A405] | ELISA absorbance 405 nm [2] [A405] | ELISA absorbance 405 nm [3] [A405] | ELISA absorbance 405 nm [4] [A405] | % internalization (pHrodo surrogate assay, vs 225 mAb) [5] [%] | % internalization (pHrodo surrogate assay, vs 225 mAb) [6] [%] | Kd [7] [nM] | % survival (DM1 secondary-conjugate ADC surrogate assay, vs mouse IgG) [9] [%] | % survival (DM1 secondary-conjugate ADC surrogate assay, vs mouse IgG) [10] [%] | binding result [11] | ELISA absorbance 405 nm [12] [A405] | ELISA absorbance 405 nm [13] [A405] | ELISA absorbance 405 nm [14] [A405] | ELISA absorbance 405 nm [15] [A405] | IC50 of growth inhibition, U87MG EGFRvIII cells [20] [nM] | binding result [21] | also measured
1 | B1 | 0.001 | 1.74 | 1.74 | 0 | 102 | < 2 | 4.2 | 55 | 91 | no binding (tested: 100 nM highest concentration) | 0 | 1.94 | 1.45 | 0.005 | – | – | binding result [8]: binds
2 | B2 | – | – | – | – | – | – | – | – | – | – | – | – | – | – | – | – | binding result [16]: no binding; Bmax [17]: 16900; Kd [18]: 1.53 nM; Kd [19]: 0.832 nM
3 | B3 | – | – | – | – | – | – | – | – | – | – | – | – | – | – | 0.3 | – | IC50 of growth inhibition, DKMG EGFRvIII cells [20]: 0.3 nM
4 | B4 | 0 | 1.71 | 1.72 | -0.001 | 136 | < 2 | 3.5 | 55 | > 98 | no binding (tested: 100 nM highest concentration) | 0.011 | 2.1 | 1.56 | 0.009 | – | binds | –
5 | B5 | 0.002 | 1.77 | 1.72 | 0.004 | 131 | < 2 | 2.2 | 62 | > 98 | no binding (tested: 100 nM highest concentration) | 0.034 | 2.2 | 1.67 | 0.032 | – | binds | –
6 | B6 | 0.001 | 1.79 | 1.78 | 0 | 131 | < 2 | 2.5 | 62 | > 98 | no binding (tested: 100 nM highest concentration) | 0.053 | 2.1 | 1.66 | 0.041 | – | binds | –
7 | B7 | 0.002 | 1.71 | 1.79 | 0.001 | 100 | < 2 | 2 | 65 | > 98 | no binding (tested: 100 nM highest concentration) | 0.016 | 2.09 | 1.67 | 0.013 | – | – | binding result [8]: binds
8 | B8 | – | – | – | – | – | – | – | – | – | – | – | – | – | – | 0.2 | – | –
9 | B9 | – | – | – | – | – | – | – | – | – | – | – | – | – | – | 1.9 | – | IC50 of growth inhibition, DKMG EGFRvIII cells [20]: 2.5 nM
10 | B10 | – | – | – | – | – | – | – | – | – | – | – | – | – | – | – | binds | binding result [16]: no binding; Bmax [17]: 16500; Kd [18]: 5.22 nM; Kd [19]: 0.947 nM
